{"source": "paper PMC11169542", "about": "“A probe for NIR-II imaging and multimodal analysis of early Alzheimer’s disease by targeting CTGF” (Nature Communications, 2024)", "tested_on": "CTX TNA2 cells", "test": "Cytotoxicity of DGC (CCK-8)", "type": "cell-based", "design": "key to Cell viability: viability relative to control cells (control = 1)", "details": "for Cell viability: 24 h, CCK-8, normalized to control", "method": "U87MG, SH-SY5Y, and CTX TNA2 cells were seeded into 96-well plates at a density of 5 × 10^3 cells per well and were incubated at 37 °C for 24 h. Then, the cells were treated with 5, 10, 20, 50, 100, and 500 µM DGC for 24 h. Next, 10 µL of a colorimetric Cell Counting Kit (CCK-8) reagent diluted with 100 µL medium was added to each well, and incubated for 30 min, The absorbance at 450 nm was measured using a microplate reader (Molecular Devices, San Jose, CA, USA). The relative viability was normalized to control cells. The experiment was performed in triplicates.", "note": "Ends that are not written are not given here."}
{"substance": "DGC: CTGF-targeting peptide-coated gold nanocluster: one Au26 gold nanocluster coated by eight DAG cyclic peptides, NIR-II and red fluorescence (CDAGRKQKC; also: cyclic peptide, ring not given here, eight peptides on one Au26 nanocluster via Cys Au-S bonds)", "values": [{"measurement": "Cell viability", "setting": "5 μM (Au content), replicate 1", "value": 1.236}, {"measurement": "Cell viability", "setting": "5 μM (Au content), replicate 2", "value": 1.185}, {"measurement": "Cell viability", "setting": "5 μM (Au content), replicate 3", "value": 1.252}, {"measurement": "Cell viability", "setting": "10 μM (Au content), replicate 1", "value": 1.248}, {"measurement": "Cell viability", "setting": "10 μM (Au content), replicate 2", "value": 1.23}, {"measurement": "Cell viability", "setting": "10 μM (Au content), replicate 3", "value": 1.328}, {"measurement": "Cell viability", "setting": "20 μM (Au content), replicate 1", "value": 1.233}, {"measurement": "Cell viability", "setting": "20 μM (Au content), replicate 2", "value": 1.3}, {"measurement": "Cell viability", "setting": "20 μM (Au content), replicate 3", "value": 1.347}, {"measurement": "Cell viability", "setting": "50 μM (Au content), replicate 1", "value": 1.269}, {"measurement": "Cell viability", "setting": "50 μM (Au content), replicate 2", "value": 1.237}, {"measurement": "Cell viability", "setting": "50 μM (Au content), replicate 3", "value": 1.251}, {"measurement": "Cell viability", "setting": "100 μM (Au content), replicate 1", "value": 1.349}, {"measurement": "Cell viability", "setting": "100 μM (Au content), replicate 2", "value": 1.363}, {"measurement": "Cell viability", "setting": "100 μM (Au content), replicate 3", "value": 1.443}, {"measurement": "Cell viability", "setting": "500 μM (Au content), replicate 1", "value": 1.758}, {"measurement": "Cell viability", "setting": "500 μM (Au content), replicate 2", "value": 1.646}, {"measurement": "Cell viability", "setting": "500 μM (Au content), replicate 3", "value": 1.62}, {"measurement": "cytotoxicity", "setting": "DGC incubation 24 h, CCK-8", "value": "did not cause any obvious cytotoxicity"}]}
